This note sets out measurements from US20090062514A1.

Values joined by “and” are separate entries in the source; they are usually repeats but may differ in a detail not shown here. Identical values can stand only once.

This assay has as its target human IgG (Sigma 14506) (human). As to the kind of experiment: co-precipitation of human IgG with viral particles by centrifugation; SDS-PAGE of pellets and supernatants.

As for “recombinant viral particles displaying protein A on their surface (TVCV coat protein-protein A fusion, domains E and D of protein A)”, the binding capacity (mg IgG/mg of viral particles) stood at 2. The CP-protein A fusion molecules per bound IgG molecule (scale: CP-protein A fusion molecules per IgG molecule) was 3 and 5.
